Assay results from FireProtDB.
“And” between values parts separate entries of the source, which are not always exact repeats. Equal values may be shown once.

Settings: whole UniProt chain shown
[1] = Thermotoga maritima (strain ATCC 43589 / DSM 3109 / JCM 10099 / NBRC 100826 / MSB8), pH 6, 29 °C, Thermal, CD, sodium phosphate 50 mM, reversible: yes
[2] = Thermus thermophilus (strain ATCC 27634 / DSM 579 / HB8), pH 5.5, 25 °C, Urea, CD, NaOAc 20 mM, KCl 50 mM, reversible: yes
[3] = Thermus thermophilus (strain ATCC 27634 / DSM 579 / HB8), pH 5.5, Thermal, CD, Sodium acetate 5 mM, KCl 50 mM, reversible: yes
[4] = Thermotoga maritima (strain ATCC 43589 / DSM 3109 / JCM 10099 / NBRC 100826 / MSB8), pH 7.4, 25 °C, GdnHCl, CD, sodium phosphate, transition: 2, reversible: yes
[5] = Thermus thermophilus, pH 7, Thermal, Fluorescence, potassium phosphate 50 mM, DTT 1 mM, reversible: yes

B1: Inorganic pyrophosphatase wild type, P38576 (protein)
chain: MANLKSLPVGDKAPEVVHMVIEVPRGSGNKYEYDPDLGAIKLDRVLPGAQFYPGDYGFIPSTLAEDGDPLDGLVLSTYPLLPGVVVEVRVVGLLLMEDEKGGDAKVIGVVAEDQRLDHIQDIGDVPEGVKQEIQHFFETYKALEAKKGKWVKVTGWRDRKAALEEVRACIARYKG
Thermus thermophilus (strain ATCC 27634 / DSM 579 / HB8), pH 7, Thermal, CD, HEPES 20 mM, MgCl2 5 mM
  Tm: 99 °C
Thermus thermophilus (strain ATCC 27634 / DSM 579 / HB8), pH 7, Thermal, CD, HEPES 20 mM
  Tm: 86 °C

B2: Dihydrofolate reductase wild type, Q60034 (protein)
chain: MAKVIFVLAMDVSGKIASSVESWSSFEDRKNFRKITTEIGNVVMGRITFEEIGRPLPERLNVVLTRRPKTSNNPSLVFFNGSPADVVKFLEGKGYERVAVIGGKTVFTEFLREKLVDELFVTVEPYVFGKGIPFFDEFEGYFPLKLLEMRRLNERGTLFLKYSVEKSHR
Thermotoga maritima (strain ATCC 43589 / DSM 3109 / JCM 10099 / NBRC 100826 / MSB8), pH 7.8, 5 °C, GdnHCl, CD, Potassium phosphate 10 mM, reversible: yes
  denaturant m value: 13.2 kcal/mol/M
Thermotoga maritima (strain ATCC 43589 / DSM 3109 / JCM 10099 / NBRC 100826 / MSB8), pH 7.8, 15 °C, GdnHCl, CD, Potassium phosphate 10 mM, reversible: yes
  denaturant m value: 9.4 kcal/mol/M
Thermotoga maritima (strain ATCC 43589 / DSM 3109 / JCM 10099 / NBRC 100826 / MSB8), pH 7.8, 15 °C, Urea, CD, Potassium phosphate 10 mM, reversible: yes
  denaturant m value: 4.71 kcal/mol/M
Thermotoga maritima (strain ATCC 43589 / DSM 3109 / JCM 10099 / NBRC 100826 / MSB8), pH 7.8, 25 °C, GdnHCl, CD, Potassium phosphate 10 mM, reversible: yes
  denaturant m value: 7.15 kcal/mol/M
Thermotoga maritima (strain ATCC 43589 / DSM 3109 / JCM 10099 / NBRC 100826 / MSB8), pH 7.8, 37 °C, GdnHCl, CD, Potassium phosphate 10 mM, reversible: yes
  denaturant m value: 5.98 kcal/mol/M
Thermotoga maritima (strain ATCC 43589 / DSM 3109 / JCM 10099 / NBRC 100826 / MSB8), pH 7.8, 55 °C, GdnHCl, CD, Potassium phosphate 10 mM, reversible: yes
  denaturant m value: 6.24 kcal/mol/M
Thermotoga maritima (strain ATCC 43589 / DSM 3109 / JCM 10099 / NBRC 100826 / MSB8), pH 7.8, 70 °C, GdnHCl, CD, Potassium phosphate 10 mM, reversible: yes
  denaturant m value: 7.56 kcal/mol/M

B3: Chemotaxis protein CheY wild type, Q56312 (protein)
chain: MGKRVLIVDDAAFMRMMLKDIITKAGYEVAGEATNGREAVEKYKELKPDIVTMDITMPEMNGIDAIKEIMKIDPNAKIIVCSAMGQQAMVIEAIKAGAKDFIVKPFQPSRVVEALNKVSK
[1]
  heat capacity change of unfolding: 1.17 kcal/mol/K
  unfolding free energy: 9.54 kcal/mol
Thermotoga maritima (strain ATCC 43589 / DSM 3109 / JCM 10099 / NBRC 100826 / MSB8), pH 6, Thermal, CD, sodium phosphate 50 mM, reversible: yes
  Tm: 101 °C

B4: Elongation factor Ts wild type, P43895 (protein)
chain: MSQMELIKKLREATGAGMMDVKRALEDAGWDEEKAVQLLRERGAMKAAKKADREAREGIIGHYIHHNQRVGVLVELNCETDFVARNELFQNLAKDLAMHIAMMNPRYVSAEEIPAEELEKERQIYIQAALNEGKPQQIAEKIAEGRLKKYLEEVVLLEQPFVKDDKVKVKELIQQAIAKIGENIVVRRFCRFELGA
Thermus thermophilus (strain ATCC 27634 / DSM 579 / HB8), pH 7, Thermal, CD, Phosphate 10 mM, reversible: No
  Tm: 115 °C

B5: Ribonuclease H wild type, P29253 (protein)
chain: MNPSPRKRVALFTDGACLGNPGPGGWAALLRFHAHEKLLSGGEACTTNNRMELKAAIEGLKALKEPCEVDLYTDSHYLKKAFTEGWLEGWRKRGWRTAEGKPVKNRDLWEALLLAMAPHRVRFHFVKGHTGHPENERVDREARRQAQSQAKTPCPPRAPTLFHEEA
[2]
  denaturant m value: 2 kcal/mol/M
  unfolding free energy: 12.8 kcal/mol
[3]
  Tm: 86 °C
  heat capacity change of unfolding: 1.8 kcal/mol/K
  unfolding enthalpy (van 't Hoff): 131 kcal/mol

B6: wild type, Q9WZ62 (protein)
chain: MKKLLAVSILLVSIVIFSGAIDEIKSRGYLLVGLSADFPPFEFVDENGNIVGFDVDLAKEIARRLGVELKIVDMTFDGLIPSLLTKKIDVIISGMTITEERKKVVAFSDPYFDAGQVIVVRKDSDFRPKTYEDLVGKTVAVQIGTTGDIEVSKYDGIKVVRFDKFTDAFLELKRGRADAVVLDSATARAFVAKNPDLVISSGVLSSEQYGIAVRKEDTDLLEFINSVLRELKKSPYDVLIEKWFSE
[4]
  denaturant m value: 2.63 kcal/mol/M and 2.86 kcal/mol/M
  denaturant midpoint (higher = more stable): 5 M and 4.5 M
  unfolding free energy: 12.9 kcal/mol and 13.1 kcal/mol

B7: 3-isopropylmalate dehydrogenase wild type, P61495 (protein)
chain: MKVAVLPGDGIGPEVTEAALKVLRALDEAEGLGLAYEVFPFGGAAIDAFGEPFPEPTRKGVEEAEAVLLGSVGGPKWDGLPRKISPETGLLSLRKSQDLFANLRPAKVFPGLERLSPLKEEIARGVDVLIVRELTGGIYFGEPRGMSEAEAWNTERYSKPEVERVARVAFEAARKRRKHVVSVDKANVLEVGEFWRKTVEEVGRGYPDVALEHQYVDAAAMHLVRSPARFDVVVTGNIFGDILSDLASVLPGSLGLLPSASLGRGTPVFEPVHGSAPDIAGKGIANPTAAILSAAMMLEHAFGLVELARKVEDAVAKALLETPPPDLGGSAGTEAFTATVLRHLA
Thermus thermophilus, pH 7, 27 °C, Urea, Fluorescence, Potassium phosphate 50 mM, transition: 3, reversible: yes
  denaturant m value: 1.2 kcal/mol/M and 1.41 kcal/mol/M
Thermus thermophilus, pH 7, Thermal, CD, phosphate 20 mM
  Tm: 87 °C
Thermus thermophilus, pH 7, Thermal, CD, sodium phosphate, ammonium sulfate 1.0-1.5 M
  Tm: 87 °C
[5]
  Tm: 30.9 °C
  heat capacity change of unfolding: 1.73 kcal/mol/K
  unfolding enthalpy (van 't Hoff): 15.8 kcal/mol
Thermus thermophilus, pH 7.6, Thermal, Activity, potassium phosphate 20 mM, reversible: No
  Tm: 84.7 °C
Thermus thermophilus, pH 7.6, Thermal, CD, phosphate 20 mM, reversible: No
  Tm: 87.4 °C
Thermus thermophilus, pH 10.4, Thermal, CD, NaHCO3 20 mM
  Tm: 87 °C
